Target: the molecule itself
Assay: size exclusion chromatography on Superdex 200: activity peaks at 42.4 and 87.5 kD, each a single 42.2 kD polypeptide on SDS-PAGE (self-association)
Experimental: Further purification of the enzyme activity was carried out by Ni2+ affinity chromatography (which binds the poly-histidine tag of the recombinant protein) and size exclusion chromatography. Nickel affinity chromatography was carried out by passing an E. coli extract, prepared as described above, through a column containing NTA-agarose (Novagen “His-Bind Resin”). 5 ml of the resin were washed with 30 ml H₂O, charged with 30 ml NiSO₄ washed with 30 ml H₂O and equilibrated with 30 ml 50 mM Na-phosphate pH 8, 300 mM NaCl. The E. coli pellet was suspended in 50 mM Na-phosphate pH 8, 300 mM NaCl and sonicated. The suspension was centrifuged again (9000 g, 20 min). The supernatant was stirred with the Ni-resin on ice for 1 hour. The suspension was transferred into a column. After settling down the column was washed with 250 ml 50 mM Na-phosphate pH 6 containing 300 mM NaCl an d 10% glycerol. Ni-bound protein was eluted with 500 mM imidazole/50 mM Na-phosphate at pH 6 containing 300 mM NaCl. Fractions were collected and assayed for L-galactose dehydrogenase activity. […] This sample was then subjected to size exclusion chromatography on a Superdex 200 column (Amersham-Pharmacia Biotech) using 25 mM tris-HCl buffer pH 7 containing 150 mM NaCl as eluent Fractions (1 ml) were collected and two peaks of activity corresponding to molecular weights of 42.4 and 87.5 kD were detected. […]

B1: recombinant Arabidopsis thaliana L-galactose dehydrogenase (expressed in E. coli from pRSETB-LgalDH, with poly-histidine tag) (enzyme)
chain: MTKIELRALGNTGLKVSAVGFGASPLGSVFGPVAEDDAVATVREAFRLGINFFDTSPYYGGTLSEKMLGKGLKALQVPRSDYIVATKCGRYKEGFDFSAERVRKSIDESLERLQLDYVDILHCHDIEFGSLDQIVSETIPALQKLKQEGKTRFIGITGLPLDIFTYVLDRVPPGTVDVILSYCHYGVNDSTLLDLLPYLKSKGVGVISASPLAMGLLTEQGPPEWHPASPELKSASKAAVAHCKSKGKKITKLALQYSLANKEISSVLVGMSSVSQVEENVAAVTELESLGMDQETLSEVEAILEPVKNLTWPSGIHQN
notes: The entry describes one subunit; also called recombinant L-galDH; not shown: poly-histidine tag and vector-encoded residues from pRSETB
  binding result: binds
